Laboratory results as given in publication PMC4309443.
Each block holds one molecule with its values, some of them ahead of it.

Assays:
[1] = target: truncated Importin α1 (residues 71–497) (UniProt P52292); assay: ITC; MicroCal iTC200, 25 °C; 1.5 mM TAF8 peptide injected into 39 μM Importin α1; 25 mM Tris-HCl pH 8.0, 150 mM NaCl, 1 mM β-mercaptoethanol; one-site model; duplicates
[2] = target: recombinant human TAF8, full length (human) (UniProt Q7Z7C8); assay: AUC; sedimentation velocity, absorbance at 280 nm, 42,000 r.p.m., 10 °C; c(s) analysis with Sedfit
[3] = target: recombinant human TAF2, full length (human); assay: native MS; TAF2–8–10 in 500 mM ammonium acetate pH 7.5, Q-ToF II, collision-induced dissociation
[4] = target: recombinant human TAF2, full length (human); assay: AUC; sedimentation velocity, absorbance at 280 nm, 42,000 r.p.m., 10 °C; c(s) analysis with Sedfit
[5] = target: recombinant human TAF2, full length (human); assay: SPR; BIACORE 3000, 25 °C; TAF2 amine-coupled to CM5 (2,500 RU); MBP–TAF8 analytes at 500 nM; 25 mM HEPES-NaOH pH 7.0, 300 mM NaCl, 0.01% NP-40

B1: MBP–TAF8 (residues 105–260) (domain or fragment)
chain: DTLPAYAKRSQRMVITAPPVTNQPVTPKALTAGQNRPHPPHIPSHFPEFPDPHTYIKTPTYREPVSDYQVLREKAASQRRDVERALTRFMAKTGETQSLFKDDVSTFPLIAARPFTIPYLTALLPSELEMQQMEETDSSEQDEQTDTENLALHISM
maximal association level [5]: < 10 RU

B2: MBP–TAF8 (residues 105–310) (domain or fragment)
chain: DTLPAYAKRSQRMVITAPPVTNQPVTPKALTAGQNRPHPPHIPSHFPEFPDPHTYIKTPTYREPVSDYQVLREKAASQRRDVERALTRFMAKTGETQSLFKDDVSTFPLIAARPFTIPYLTALLPSELEMQQMEETDSSEQDEQTDTENLALHISMEDSGAEKENTSVLQQNPSLSGSRNGEENIIDNPYLRPVKKPKIRRKKSLS
maximal association level [5]: 85 RU

B3: MBP–TAF8 (residues 141–310) (domain or fragment)
chain: PHPPHIPSHFPEFPDPHTYIKTPTYREPVSDYQVLREKAASQRRDVERALTRFMAKTGETQSLFKDDVSTFPLIAARPFTIPYLTALLPSELEMQQMEETDSSEQDEQTDTENLALHISMEDSGAEKENTSVLQQNPSLSGSRNGEENIIDNPYLRPVKKPKIRRKKSLS
maximal association level [5]: 40 RU

B4: MBP–TAF8 (residues 200–310) (domain or fragment)
chain: TQSLFKDDVSTFPLIAARPFTIPYLTALLPSELEMQQMEETDSSEQDEQTDTENLALHISMEDSGAEKENTSVLQQNPSLSGSRNGEENIIDNPYLRPVKKPKIRRKKSLS
maximal association level [5]: < 10 RU

Now from value to molecule:

Kd [1]: 10.4 µM
dH [1]: -18.5 kcal/mol
stoichiometry N [1]: 1
Molecule: TAF8 NLS peptide used for ITC (printed as residues 288–310)

stoichiometry N [2]: 1
Molecule: recombinant human TAF10, full length (natural protein)

stoichiometry N [3]: 1
stoichiometry N [4]: 1
Molecule: TAF8–10 complex (full-length TAF8 and TAF10) (from UniProt Q7Z7C8-1 1-310)
